Values quoted from earlier work in paper PMC8508939.

Target: FoxP1 forkhead domain (Homo sapiens) (UniProt Q9H334)

Kd: 27 µM
Substance: FoxP1 forkhead domain (from UniProt Q9H334)
